Test results reported in patent US20240123058A1 (XIAMEN UNIVERSITY, published 2024).

B1: rabbit monoclonal antibody 3A3 (antibody, V domains shown)
VH: QSVKESGGRLVTPGTPLTLTCTVSGFSLSSYAMSWVRQAPGKGLEYIGVIYASGSTYYASWAKGRFTISRTATTVDLKITSPTTEDTATYFCGRGVSTNMWGPGTLVTVSS
VL: DLVMTQTPSSVSAAVGGTVTIKCQASQSLGGGLAWYQQKPGQRPKLLIYSASTLESGVPSRFRGSGSGTEFTLTISDLECADAATYYCQSAYGPTSNGLFNAFGGGTKVVIK
notes: Recombinant rabbit monoclonal antibody expressed in 293F cells; also called 3A3 antibody
B2: rabbit monoclonal antibody 3A5 (antibody, V domains shown)
VH: QSVKESGGRLVTPGTPLTLTCTVSGFSLSSYEMGWVRQAPGEGLEWIGTISTGGSSYYASWAKGRFTISRTSTTVDLKMTSLTTADTATYFCARGYGGYGIGAGYFNIWGPGTLVTVSS
VL: ALVMTQTPSSVSEPVGGTVTIKCQASQSISSYLAWYQRKPGQRPKLLIYGTSTLASGVPSRFIGSGSGTDYTLTISDLECDDAATYYCQQGFSTSNVYNSFGGGTKVDIK
notes: Recombinant rabbit monoclonal antibody expressed in 293F cells; also called 3A5 antibody

Assays:
[1] = molecular target: T1, EBV gB protein ectodomain (24-683 aa) of the substituted M81 strain gB protein, C-terminal 6×His tag (EBV M81 strain, UniProt P0C762 24-683); test: SPR (Biacore 8K): antibody captured on a Protein A chip, EBV-gB as analyte at 1.5625-200 nM
T1 construct: Expressed in 293F cells; also called EBV gB ectodomain
T1 chain: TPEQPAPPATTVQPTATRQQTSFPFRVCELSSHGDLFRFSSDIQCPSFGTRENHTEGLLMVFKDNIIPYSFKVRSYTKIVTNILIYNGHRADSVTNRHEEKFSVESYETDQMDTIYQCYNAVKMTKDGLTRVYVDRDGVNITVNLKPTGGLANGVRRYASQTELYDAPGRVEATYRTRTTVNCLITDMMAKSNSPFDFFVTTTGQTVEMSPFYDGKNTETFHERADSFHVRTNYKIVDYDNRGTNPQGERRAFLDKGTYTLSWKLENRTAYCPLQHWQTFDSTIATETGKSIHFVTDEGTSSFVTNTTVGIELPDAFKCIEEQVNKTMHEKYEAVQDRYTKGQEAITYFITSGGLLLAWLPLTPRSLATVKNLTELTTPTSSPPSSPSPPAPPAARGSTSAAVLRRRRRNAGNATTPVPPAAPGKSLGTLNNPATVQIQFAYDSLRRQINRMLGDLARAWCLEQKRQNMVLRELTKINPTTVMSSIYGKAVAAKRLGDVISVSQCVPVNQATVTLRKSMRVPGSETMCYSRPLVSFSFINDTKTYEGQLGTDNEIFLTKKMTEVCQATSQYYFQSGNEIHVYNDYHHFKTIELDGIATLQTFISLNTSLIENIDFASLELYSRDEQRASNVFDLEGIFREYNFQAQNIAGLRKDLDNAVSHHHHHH

[2] = molecular target: T1, EBV gB protein ectodomain (24-683 aa) …; test: SPR, Biacore 8K, antibody captured on Protein A chip, gB as analyte
[3] = molecular target: T1, EBV gB protein ectodomain (24-683 aa) …; test: indirect ELISA, coated gB ectodomain
gB-528~616aa = molecular target: T2, gB-528~616aa; test: Western blot of gB segments displayed on HBc149, reduced and heated
T2 construct: as f3
T2 HBc149/mut carrier with inserted gB segment: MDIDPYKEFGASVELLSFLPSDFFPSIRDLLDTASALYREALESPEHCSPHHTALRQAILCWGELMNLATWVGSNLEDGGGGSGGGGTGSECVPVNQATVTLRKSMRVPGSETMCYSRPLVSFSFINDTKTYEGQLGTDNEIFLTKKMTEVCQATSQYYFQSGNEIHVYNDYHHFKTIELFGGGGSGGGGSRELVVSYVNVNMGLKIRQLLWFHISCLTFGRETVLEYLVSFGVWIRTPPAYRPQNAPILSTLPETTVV

[4] = molecular target: T3, HBc149 protein chimerized with gB-331˜367aa epitope; test: indirect ELISA on the coated HBc149 protein chimerized with gB-331~367aa, antibody titrated
T3 construct: also called Recombination protein gB aa331-367 + HBc149/mut; HBc149 chimeric protein
T3 chain: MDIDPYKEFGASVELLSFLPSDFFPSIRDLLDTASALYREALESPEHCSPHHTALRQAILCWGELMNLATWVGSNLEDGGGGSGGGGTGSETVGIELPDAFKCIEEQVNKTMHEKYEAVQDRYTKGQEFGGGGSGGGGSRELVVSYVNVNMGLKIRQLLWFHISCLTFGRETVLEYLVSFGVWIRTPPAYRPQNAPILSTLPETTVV

[5] = molecular target: gB protein on EBV virions used in the neutralization models (Epstein-Barr virus); test: cell-based or functional assay
[6] = molecular target: T4, wild-type full-length EBV gB protein expressed on cells (EBV M81 strain, UniProt P0C762 22-857); test: immunofluorescence on MDCK cells transfected with full-length wild-type gB
T4 construct: also called gB protein expressed by cells; natural gB protein
T4 chain: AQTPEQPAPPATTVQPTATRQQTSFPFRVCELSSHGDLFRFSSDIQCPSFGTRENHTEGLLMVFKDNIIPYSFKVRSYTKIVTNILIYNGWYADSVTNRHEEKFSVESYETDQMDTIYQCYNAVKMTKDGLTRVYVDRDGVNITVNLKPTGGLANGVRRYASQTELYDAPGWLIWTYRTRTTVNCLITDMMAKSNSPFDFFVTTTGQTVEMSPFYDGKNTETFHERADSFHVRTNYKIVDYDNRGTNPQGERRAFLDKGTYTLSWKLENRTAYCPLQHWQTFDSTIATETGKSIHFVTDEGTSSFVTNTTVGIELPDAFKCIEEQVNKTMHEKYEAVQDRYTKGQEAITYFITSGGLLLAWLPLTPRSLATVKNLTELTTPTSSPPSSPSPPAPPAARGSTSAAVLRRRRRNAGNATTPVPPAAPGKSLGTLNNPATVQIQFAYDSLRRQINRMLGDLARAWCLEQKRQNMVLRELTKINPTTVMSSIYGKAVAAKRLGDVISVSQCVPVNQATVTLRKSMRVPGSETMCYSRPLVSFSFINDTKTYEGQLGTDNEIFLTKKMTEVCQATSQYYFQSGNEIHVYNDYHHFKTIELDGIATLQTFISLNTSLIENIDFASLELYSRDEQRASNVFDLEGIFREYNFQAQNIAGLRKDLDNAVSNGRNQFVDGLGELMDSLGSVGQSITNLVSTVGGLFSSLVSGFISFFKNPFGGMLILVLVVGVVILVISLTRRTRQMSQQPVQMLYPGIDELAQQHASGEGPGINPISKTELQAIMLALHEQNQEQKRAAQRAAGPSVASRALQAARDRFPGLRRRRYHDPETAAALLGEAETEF

[7] = molecular target: T1, EBV gB protein ectodomain (24-683 aa) …; test: indirect ELISA on coated wild-type gB ectodomain, 3A5 titrated [right panel]
gB-295~390aa = molecular target: T5, gB-295~390aa; test: Western blot of gB segments displayed on HBc149, reduced and heated
T5 construct: as f3
T5 HBc149/mut carrier with inserted gB segment: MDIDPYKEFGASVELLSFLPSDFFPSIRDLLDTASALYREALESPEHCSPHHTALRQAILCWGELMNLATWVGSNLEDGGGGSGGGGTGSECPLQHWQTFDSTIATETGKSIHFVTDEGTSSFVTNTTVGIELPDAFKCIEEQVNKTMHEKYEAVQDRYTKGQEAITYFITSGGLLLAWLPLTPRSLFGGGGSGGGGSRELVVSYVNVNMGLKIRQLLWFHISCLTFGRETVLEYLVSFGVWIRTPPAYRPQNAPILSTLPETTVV

| Binder | koff [1] [s⁻¹] | kon [1] [M⁻¹ s⁻¹] | Kd [2] [nM] | EC50 [3] [µg/mL] | binding result (gB-528~616aa) | binding result [4] | IC50 on the B cell infection model [5] [µg/mL] | IC50 on the epithelial cell infection model [5] [µg/mL] | binding result [6] | EC50 (read off the curve) [7] [µg/mL] | binding result (gB-295~390aa) |
| --- | --- | --- | --- | --- | --- | --- | --- | --- | --- | --- | --- |
| B1 | 0.000162 | 188000 | 0.863 | 0.007 | no binding (tested: 1 µg/mL) | binds | 2.97 | 0.07 | binds | – | – |
| B2 | 0.000266 | 648000 | 0.411 | 0.0052 | – | – | 4.9 | 0.31 | binds | ~0.005 | no binding (tested: 1 µg/mL) |
